Assay results as given in publication PMC4908180.

Legend:
[1] = tested on: Nc1ncnc2c1ncn2[C@@H]1O[C@H](COP(=O)(O)OP(=O)(O)OP(=O)(O)O)[C@@H](O)[C@H]1O; assay: purified protein; settings: FMN co-substrate, MgCl2, Tris-HCl pH 7.5, 37°C
[2] = tested on: Cc1cc2nc3c(=O)[nH]c(=O)nc-3n(C[C@H](O)[C@H](O)[C@H](O)COP(=O)(O)O)c2cc1C; assay: purified protein; type: biochemical, Homo sapiens; settings: 100 μM ATP, 5 mM MgCl2, 50 mM Tris-HCl pH 7.5, 37°C

Row | Substance | Km [1] [µM] | Km [2] [µM]
1 | 6His-tagged human FADS isoform 2 (FADS2), WT (Homo sapiens) | 8.10 ± 1.37 | 0.32 ± 0.10
2 | 6His-tagged human FADS isoform 2 (FADS2), WT (Homo sapiens; DEL495-495) | 8.02 ± 2.23 | 0.98 ± 0.23
3 | 6His-tagged human FADS isoform 2 (FADS2), WT (Homo sapiens; R530C) | 4.63 ± 1.00 | 0.39 ± 0.07
